Test results as given in PMC3843635 (Protein Science : A Publication of the Protein Society, 2013).
Read-outs that look alike come from different tables or passages of the source. Where a SMILES comes first, the peptide text is derived from it. The star is where a group is joined. Bz = O=C(c1ccccc1)*

Experiments:
[1] = biological target: Keap1-Nrf2 protein-protein interaction (CFP-Nrf2 and YFP-Kelch) (Homo sapiens, UniProt Q14145); experiment: FRET competition assay; type: binding; conditions: for effect on association between CFP-Nrf2 and YFP-Kelch (FRET efficiency): unlabeled 16-mer peptides, competition assay, Fig. 5; for binding activity relative to peptide 1: FRET competition, 7-mer peptides
[2] = system: Keap1-Nrf2 protein-protein interaction; conditions: read-out: FP IC50 ± SE; previously described FP assay; cited from earlier work
[3] = biological target: T1, YFP conjugated to the human Keap1 Kelch domain (YFP-Kelch) (human, UniProt Q14145 321-609); experiment: FRET or BRET
[4] = biological target: T1, YFP conjugated to the human Keap1 Kelch …; experiment: FRET or BRET; remark: listed apart in the source
[5] = biological target: T1, YFP conjugated to the human Keap1 Kelch …; experiment: FRET or BRET; remark: listed apart in the source

Keap1-Nrf2 protein-protein interaction (CFP-Nrf2 and YFP-Kelch), sequence (Q14145 321-609): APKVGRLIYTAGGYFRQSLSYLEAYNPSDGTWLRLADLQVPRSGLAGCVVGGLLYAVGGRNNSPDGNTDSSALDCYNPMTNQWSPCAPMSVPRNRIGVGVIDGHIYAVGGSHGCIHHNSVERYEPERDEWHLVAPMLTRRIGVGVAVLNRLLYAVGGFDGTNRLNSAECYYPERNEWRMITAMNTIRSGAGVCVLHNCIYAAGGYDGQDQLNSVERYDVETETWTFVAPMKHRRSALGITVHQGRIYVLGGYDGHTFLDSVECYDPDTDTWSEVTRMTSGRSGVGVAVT
T1 sequence (Q14145 321-609): as above

E79Q (AFFAQLQLDEQTGEFL) [Peptide E79Q, reference compound]
effect on association between CFP-Nrf2 and YFP-Kelch (FRET efficiency) [1]: unable to perturb the association

CC(=O)N[C@@H](CC(=O)O)C(=O)N1CCC[C@H]1C(=O)N[C@@H](CCC(=O)O)C(=O)N[C@H](C(=O)NCC(=O)N[C@@H](CCC(=O)O)C(=O)N[C@@H](Cc1ccccc1)C(=O)O)[C@@H](C)O [Peptide 3, Ac-DPETGEF-OH] (Ac-DPETGEF-OH)
binding activity relative to peptide 1 [1]: increased binding activity | IC50 [2]: 250 ± 40 nM

E82D (AFFAQLQLDEETGDFL) [Peptide E82D, reference compound]
effect on association between CFP-Nrf2 and YFP-Kelch (FRET efficiency) [1]: unable to perturb the association

CC(C)C[C@H](NC(=O)[C@H](CCC(=O)O)NC(=O)CNC(=O)[C@@H](NC(=O)[C@H](CCC(=O)O)NC(=O)[C@@H]1CCCN1C(=O)[C@H](CC(=O)O)NC(=O)c1ccccc1)[C@@H](C)O)C(=O)O [Peptide 4, Ph-DPETGEL-OH] (Bz-DPETGEL-OH; N-terminus assumed)
binding activity relative to peptide 1 [1]: increased binding activity | IC50 [2]: 160 ± 20 nM

T80K (AFFAQLQLDEEKGEFL) [Peptide T80K, reference compound]
effect on association between CFP-Nrf2 and YFP-Kelch (FRET efficiency) [1]: unable to perturb the association

E78P/F83L (AFFAQLQLDPETGELL)
effect on association between CFP-Nrf2 and YFP-Kelch (FRET efficiency) [1]: dose-dependent reduction in FE

B1: peptide 3, Ac-DPETGEF-OH (peptide)
peptide: Ac-DPETGEF-OH
IC50 [3]: 330 nM

B2: CFP-E82D (peptide)
chain: AFFAQLQLDEETGDFL
Kd [4]: > 100 nM

B3: CFP-T80K (peptide)
chain: AFFAQLQLDEEKGEFL
Kd [4]: > 100 nM

B4: CFP-E79Q (peptide)
chain: AFFAQLQLDEQTGEFL
Kd [4]: > 100 nM

B5: CFP-E78P/F83L (peptide)
chain: AFFAQLQLDPETGELL
Kd [4]: 40 nM

B6: E78P/F83L unlabeled 16-mer peptide (peptide)
peptide: AFFAQLQLDPETGELL
IC50 [5]: 80 nM
